Laboratory results taken from patent US20250376505A1.

B1: C11P7 (antibody, V domains shown)
VH: EVQLVESGGGLVQPGGSLKLSCAASGFSLSNSEVHWVRQASGKGLEWIGRVRSRANRHATGYTESVNGRFTVSRDDSKNTASLQLESLKIEDTAVYYCTGVRGVISRYFAMDVWGQGTTVTVSS
VL: QSALTQPASVSGSPGQSITISCTGTSSDVGAYNYVSWYRLRPGKDPHLIIYDVSHRPAGVSNRFSGSKSGNTASLTISGLQAEDEDEYYCCSYAHRGTPLFGGGTKLTVL
B2: D7P6 (antibody, V domains shown)
VH: EVQLLESGGGLVQPGGSLRLSCAASGFPFSSYAMSWVRQAPGKGLEWVSGITGSASGTYYADSVKGRFTISRDNSKNTLYLRMNSLRAEDTAVYYCAKEGAYSYDYWYFDLWGRGTLVTVSS
VL: EIVLTQSPGTLSLSPGERATLSCRASQSVSGSYLAWYQQKPGQTPRLLIYGASSRATGIPDRFSGSGSGTDFTLTINRLDPEDFGVYYCQQYGSLVTFGGGSKVEIK
B3: B10P1 (antibody, V domains shown)
VH: EVQLSESGGGLVQPGGSLRLSCAASGFTFSSYAMSWVRQAPGKGLEWVSSLTGSGGSTYYRDSVKGRFTIFRDNSKKTLYMQMNSLRAEDTAVYYCAKEGAYSYDFWYFDLWGRGTLVTVSS
VL: EIVLTQSPGTLSLSPGERATLSCRASQTVSGNYLAWYQQKPGQSPSLLIYGASSRATGIPDRFTGSGSGTDFTLTISRLEPADFAVYYCQQYGRPLTFGGGTKVDIK
B4: C4P7 (antibody, V domains shown)
VH: EVQLLESGGGLVQPGGSLRLSCAASGFTFSSYAMSWVRQAPGKGLEWVSSLTGSGGSTYYRDSVKGRFTIFRDNSKKTLYMQMNSLRAEDTAVYYCAKEGAYSYDFWYFDLWGRGTLVTVSS
VL: EIVLTQSPGTLSLSPGERATLSCRASQTVSGNYLAWYQQKPGQSPSLLIYGASSRATGIPDRFTGSGSGTDFTLTISRLEPADFAVYYCQQYGRPLTFGGGTKVEIK
B5: B8P7 (antibody, V domains shown)
VH: QVQLQESGPGLVRPSETLSLTCTVSGGSISPYYWNWIRQPPGKGLEWIGYIYYSGNTKYNPSLKSRVTISVDTSKNQFSLKLSSVSAADTAVYYCARDSCSGTCYLGDNWFDPWGQGTLVTVSS
VL: QSVLTQPPSVSGAPGQRVTISCTGSSSNIGANNDVHWYQHLPGTAPKLLIYGNNHRPSGVPDRFSGSKSGTSASLAITGLQAEDEADYYCQSYDSSLSTSKVFGGGTKLTVL
B6: C4P6 (antibody, V domains shown)
VH: QVQLQESGPGLVRPSETLSLTCTVSGGSISPYYWNWIRQPPGKGLEWIGYIYYSGNTKYNPSLKSRVTISVDTSKNQFSLKLSSVSAADTAVYYCARDSCSGTCYLGGNWFDPWGQGTLVTVSS
VL: QSVLTQPPSVSGAPGQRVTISCTGSSSNIGANNDVHWYQHLPGTAPKLLIYGNNHRPSGVPDRFSGSKSGTSASLAITGLQAEDEADYYCQSYDSSLSTSKVFGGGTKLTVL
B7: B9P6 (antibody, V domains shown)
VH: EVQLVESGGGLVQPGGSLRLSCAASGFTFRSYTMDWVRQAPGKGLEWVSCISGSSNHKYYADSVRGRFTISRDNAKNSLFLQMNSLRAEDSAVYYCAREDDILTPLYGMDVWGPGTTVTVSS
VL: EIVLTQSPDTLSLSPGARATLSCRASQSVRSNYLAWYQQKPGQAPRLLIYGASSRATAIPDRFSGSGSGTDFTLTITRLEPEDFAVYYCHQYGSSPRTFGQGTKVEIK
B8: B2P8 (antibody, V domains shown)
VH: QVQLQESGPGLVKPSETLSLTCTVSGGSIRNSYWSWIRQPPGKGLEWIGYIYYTGTTNSNPSLKSRVTISVHMSQNQISLKLNSVTPADTAVYYCAQGGGSGDLHYWGQGTLVTVSS
VL: EIVLTQSPDTLSLSPGARATLSCRASQSVRSNYLAWYQQKPGQAPRLLIYGASSRATAIPDRFSGSGSGTDFTLTITRLEPEDFAVYYCHQYASSPRTFGQGTKVEIK
B9: E11P6 (antibody, V domains shown)
VH: EVQLVESGGGLVQPGGSLRLSCAASGFTFRSYSMDWVRQAPGKGLEWVSYISGSSNQKYYTDSVRGRFTISRDNAKNSLFLQMNSLRAEDSAVYYCAREDDILTPLYGMDVWGPGTTVTVSS
VL: EIVLTQSPDTLSLSPGARATLSCRASQSVRSNYLAWYQQKPGQAPRLLIYGASSRATAIPDRFSGSGSGTDLTLTITRLEPEDFAVYYCHQYASSPRTFGQGTKVEIK
B10: G11P1 (antibody, V domains shown)
VH: EVQLVESGGGLVQPGGSLRLSCAASGFTFRSYSMDWVRQAPGKGLEWVSYISGSSNQKYYTDSVRGRFTISRDNAKNSLFLQMNSLRAEDSAVYYCAREDDILTPLYGMDVWGPGTTVTVSS
VL: EIVLTQSPDTLSLSPGARATLSCRASQSVRSNYLAWYQQKPGQAPRLLIYGASSRATAIPDRFSGSGSGTDFTLTITRLEPEDFAVYYCHQYASSPRTFGQGTKVEIK
B11: G5P1 (antibody, V domains shown)
VH: QVQLQESGPGLVKPSGTLSLTCTVSGGSIRNSYWSWIRQPPGKGLEWIGYIYYTGTTNSNPSLKSRVTISVHMSRNQISLKLNSVTPADTAVYYCAQGGGSGDLHYWGQGTLVTVSS
VL: NFMLTQPASVSGSPGQSITISCTGTRSDVGGYNYVSWYQQHPGKAPKLMIYDISSRPSGVSNRFSASKSGNTASLTISGLQAEDEADYYCISFATGYTWVFGGGTRLTVL
B12: E7P5 (antibody, V domains shown)
VH: QVQLQESGPGLVKPSETLSLTCTVSGGSIRNSYWSWIRQSPGKGLEWIGYIYYTGSTNSNPSLKSRLTVSVHMSQNQISLKLNSVTPADTAVYYCAQGGGSGDLHYWGQGTLVTVSS
VL: QSALTQPASVSGSPGQSITISCTGTRSDVGGYNYVSWYQQHPGKAPKLIIYDISSRPSGVSNRFSASKSGNTASLTISGLQAEDEADYYCISFATGYTWVFGGGTSLTVL

These binders were tested against VP1 pentamer of BKV genotype I (truncated VP1, residues 31 to 301, Dunlop sequence with Cys 104 replaced by Ser) (BK virus genotype I (Dunlop)) (UniProt P03088) (assay: ELISA, coated VP1 pentamer).
VP1 pentamer of BKV genotype I (truncated VP1, residues 31 to 301, Dunlop sequence with Cys 104 replaced by Ser) (BK virus genotype I (Dunlop)), sequence (P03088 31-301): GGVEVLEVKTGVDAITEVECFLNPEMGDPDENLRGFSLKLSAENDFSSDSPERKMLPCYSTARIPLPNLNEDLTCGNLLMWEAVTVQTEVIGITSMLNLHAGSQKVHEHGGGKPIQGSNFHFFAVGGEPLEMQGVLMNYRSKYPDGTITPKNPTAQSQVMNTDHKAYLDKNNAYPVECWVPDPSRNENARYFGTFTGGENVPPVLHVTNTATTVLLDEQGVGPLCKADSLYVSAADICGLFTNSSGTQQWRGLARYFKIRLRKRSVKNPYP
B1 was tested, and the EC50 was 6 µg/mL. With B2 the EC50 was 6 µg/mL. B3 showed an EC50 of 7 µg/mL. Work on B4 yielded an EC50 of 5 µg/mL. In the case of B5, the EC50 is reported as 0.05 µg/mL. B6 was tested, and the EC50 was 1.5 µg/mL. Binder B7 has an EC50 of 0.12 µg/mL. Binder B8 has an EC50 of 10 µg/mL. With B9 the EC50 was 0.6 µg/mL. B10 gave an EC50 of 0.7 µg/mL. B11 gave an EC50 of 7 µg/mL. Binder B12 has an EC50 of 0.15 µg/mL.
